Data published in patent publication US20230104769A1 (MABWELL SHANGHAI BIOSCIENCE, published 2023).

How the values were obtained:
[1] = target: T1, recombinant human PD-1 protein (NCBI accession No.: NP_005009.2, 21aa-167aa) (human, UniProt Q15116 21-167); assay: ELISA, plate coated with the protein at 1 µg/mL, biotinylated h317, HRP-streptavidin
T1 construct: range 21-167; also called recombinant human PD-1 extracellular domain protein; PD-1-ECD
Procedure: (§1) The plates were washed three times with PBS subsequently, and 5% BSA-PBS was added for blocking for 60 min at 37° C. […] Again, the plates were washed four times with PBST, then HRP-streptavidin (Cat: 019-035-098, Jackson Immuno Research) with a dilution of 1:100 was added for a 30 min incubation at 37° C. Once again, the plates were washed four times with PBST, and TMB substrate was added for developing color through incubating for 10 min at 37° C., then the reaction was terminated by adding 2 M HCl. With 630 nm as reference wavelength, the absorbance at a wavelength of 450 nm (A450 nm-630 nm) of each well in the plates was read and recorded.

[2] = target: CTLA4 (Cat: 11159-H08H, Sino Biological Inc.) (human, UniProt P16410 36-162); assay: as above
Procedure: as §1

[3] = target: CD28 (Cat: 11524-HCCH, Sino Biological Inc.) (human, UniProt P10747 19-152); assay: as above
Procedure: as §1

[4] = target: T2, mouse PD-1 (Cat: 50124-M08H, Sino Biological Inc.) (mouse, UniProt Q02242 25-167); assay: ELISA, plate coated with the PD-1 protein at 1 µg/mL, biotinylated h317, HRP-streptavidin
T2 construct: Bought recombinant protein; also called recombinant mouse PD-1
T2 sequence (looked up): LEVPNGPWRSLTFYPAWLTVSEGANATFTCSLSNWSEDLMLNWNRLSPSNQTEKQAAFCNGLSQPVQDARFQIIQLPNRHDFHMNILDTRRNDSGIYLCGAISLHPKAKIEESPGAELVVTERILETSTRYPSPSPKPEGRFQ
Procedure: as §1, with “immuno” for “Immuno”

[5] = target: T3, rat PD-1 (Cat: 80448-R08H, Sino Biological Inc.) (rat, UniProt D3ZIN8 25-169); assay: as above
T3 construct: Bought recombinant protein; also called recombinant rat PD-1; not shown: The vendor's tag
T3 sequence: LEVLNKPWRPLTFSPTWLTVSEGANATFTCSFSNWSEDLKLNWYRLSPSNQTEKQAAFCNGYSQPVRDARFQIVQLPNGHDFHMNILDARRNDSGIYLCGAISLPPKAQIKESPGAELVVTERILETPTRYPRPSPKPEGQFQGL
Procedure: as §1, with “immuno” for “Immuno”

N116A = target: T4, N116A; assay: flow cytometry on transfected HEK293 cells, antibody 2 µg/ml, goat anti-human IgG(Fc)-Cy5; no negative-control bar is drawn
T4 construct: also called full-length human PD-1 N116A expressed on HEK293 cells; PD-1-mut N116A; not shown: EGFP of the expression vector, if it is fused to PD-1
Procedure: (§2) The mutants obtained were inserted into an expression vector carrying EGFP to construct five plasmids expressing full-length human PD-1 (WT, N49A, N58A., N116A, N74A). […] 2 days after the transfection, the cells were collected to a 96-well plate, centrifuged at 1500 rpm for 2 minutes, and the supernatants in the wells were discarded. […] The working concentration of the primary antibodies was 2 μg/ml, and cells without primary antibodies added were used as negative controls. The mixtures obtained were centrifuged at 1500 rpm for 2 minutes, and supernatants were discarded. The cells in each well were resuspended by adding 200 μl PBS and the suspensions obtained were then centrifuged at 1500 rpm for 2 minutes, then supernatants were discarded. Later, the obtained cells were incubated with 200 μl goat anti-human IgG(Fc)-Cy5 (Cat: 12136, Lot: 017M4800V, Sigma) diluted with 5% BSA added into each well for 1 h at room temperature, then centrifuged at 1500 rpm for 2 minutes, and supernatants were discarded. The cells were resuspended by adding 200 μl PBS and the suspensions obtained were then centrifuged at 1500 rpm for 2 minutes, then supernatants were discarded. The cells again were resuspended by adding 200 μl PBS thereto and detected by flow cytometry (B49007AD, SNAW31211).

N74A = target: T5, N74A; assay: as above
T5 construct: also called full-length human PD-1 N74A expressed on HEK293 cells; PD-1-mut N74A; not shown: EGFP of the expression vector, if it is fused to PD-1
Procedure: as §2

N49A = target: T6, N49A; assay: as above
T6 construct: also called full-length human PD-1 N49A expressed on HEK293 cells; PD-1-mut N49A; not shown: EGFP of the expression vector, if it is fused to PD-1
Procedure: as §2

[6] = target: T1, recombinant human PD-1 protein (NCBI …); assay: ELISA, biotinylated h317 on plate-bound PD-1
Procedure: as §1, with “immuno” for “Immuno”

[7] = target: T7, cynomolgus monkey PD-1 (Cat: 90311-C08H, Sino Biological Inc.) (cynomolgus monkey, UniProt B0LAJ3 25-170); assay: ELISA, biotinylated h317 on plate-bound PD-1
T7 construct: Bought recombinant protein; not shown: The vendor's tag
Procedure: as §1, with “immuno” for “Immuno”

T1 sequence (Q15116 21-167 limits assumed, form in doubt): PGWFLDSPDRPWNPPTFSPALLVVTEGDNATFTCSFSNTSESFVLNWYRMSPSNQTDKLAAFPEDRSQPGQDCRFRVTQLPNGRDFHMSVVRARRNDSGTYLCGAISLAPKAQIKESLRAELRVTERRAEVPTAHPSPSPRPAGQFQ
T7 sequence (B0LAJ3 entry or part of it C08H C08H limits assumed): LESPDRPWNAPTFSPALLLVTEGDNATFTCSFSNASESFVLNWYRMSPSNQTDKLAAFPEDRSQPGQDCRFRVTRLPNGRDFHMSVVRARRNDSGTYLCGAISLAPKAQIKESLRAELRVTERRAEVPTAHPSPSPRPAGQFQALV
T6 sequence (chain, as listed by the source N49A N49A limits assumed): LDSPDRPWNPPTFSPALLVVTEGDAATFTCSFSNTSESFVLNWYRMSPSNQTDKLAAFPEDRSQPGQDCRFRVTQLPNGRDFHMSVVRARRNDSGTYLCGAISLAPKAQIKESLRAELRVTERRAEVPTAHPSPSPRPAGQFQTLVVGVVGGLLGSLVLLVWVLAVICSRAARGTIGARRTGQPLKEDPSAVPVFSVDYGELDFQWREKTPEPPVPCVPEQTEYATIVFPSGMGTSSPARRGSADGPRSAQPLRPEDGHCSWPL
T4 sequence (chain, as listed by the source N116A N116A limits assumed): as the sequence (chain, as listed by the source N49A N49A limits assumed) above, with A25N, N92A counted along it
Chain of CTLA4 (Cat: 11159-H08H, Sino Biological Inc.) (P16410 36-162 limits assumed): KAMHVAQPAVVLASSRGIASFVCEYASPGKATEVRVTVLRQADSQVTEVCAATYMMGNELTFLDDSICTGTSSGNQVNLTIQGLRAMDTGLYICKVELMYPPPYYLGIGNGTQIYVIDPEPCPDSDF
T5 sequence (chain, as listed by the source N74A N74A limits assumed): as the sequence (chain, as listed by the source N49A N49A limits assumed) above, with A25N, N50A counted along it

EC50 (read off the curve) [1]: ~1 pM | binding result (N116A): binds | binding result (N74A): binds | binding result (N49A): binds | EC50 [6]: 4.7 pM | EC50 [7]: 18.2 pM
B1: h317 (humanized anti-human PD-1 antibody) (antibody, V domains shown)
VH: EVQLVESGGGLVKPGGSLRLSCAASGFTFSSYDMSWVRQAPGKGLEWVATISGGGSYTYYPDSVKGRFTISRDNAKNSLYLQMNSLRAEDTAVYYCASPDSSGVAYWGQGTLVTVSS
VL: DIVMTQSPLSLPVTPGEPASITCKASQDVETVVAWYLQKPGQSPRLLIYWASTRHTGVPDRFSGSGSGTDFTLKISRVEAEDVGVYYCQQYSRYPWTFGQGTKL
notes: also called h317-biotin; biotinylated h317
binding result [2]: no binding (tested: 1 nM (log(nM) 0 on the axis)) | binding result [3]: no binding (tested: 1 nM (log(nM) 0 on the axis)) | binding result [4]: no binding (tested: 1 nM (log(nM) 0 on the axis)) | binding result [5]: no binding (tested: 1 nM (log(nM) 0 on the axis))
